This note sets out measurements from paper doi:10.1101/2021.11.19.469356 (bioRxiv, 2021).

Where “and” joins values, the source holds several entries; their conditions need not be identical. Equal entries are not always repeated. Where no end group is shown, it is not given here.

Assay [1] addresses T1, MED25 ACID (residues Leu389-Asn543), recombinant (human, UniProt Q71SY5 389-543).
T1 sequence: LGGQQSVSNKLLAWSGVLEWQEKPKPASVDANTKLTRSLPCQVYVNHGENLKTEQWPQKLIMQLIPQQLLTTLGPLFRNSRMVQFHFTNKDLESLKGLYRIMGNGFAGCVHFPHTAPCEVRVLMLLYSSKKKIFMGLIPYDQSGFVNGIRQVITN
The assay can be described thus: NMR titration.

Assay [2] concerns the target T1, MED25 ACID (residues Leu389-Asn543), …. Nature of the assay: pull-down.

As to Ac-SDSTMTNYMNQLSELLGFDLNP [N-acetylated NS1 α3 peptide (RSV NS1 residues Ser118-Pro139)], in assay [1], the Kd came to 17 ± 8 µM; the “apparent Kd, second site of lower affinity (H1 face)” value is 200 µM and 1000 µM.

B1: GST-ATF6αTAD (residues 1-150) (domain or fragment)
chain: MGEPAGVAGTMESPFSPGLFHRLDEDWDSALFAELGYFTDTDELQLEAANETYENNFDNLDFDLDLMPWESDIWDINNQICTVKDIKAEPQPLSPASSSYSVSSPRSVDSYSSTQHVPEELDLSSSSQMSPLSLYGENSNSLSSAEPLKE
B1: the binding result in assay [2] was “binds”.

The Kd is the concentration at which binding is half-saturated.
